Test results from publication PMC13356908.
Blank lines part the entries; values can stand above or below the molecule they belong to.

Assays:
[1] = molecular target: LD655-labeled p97 D592AzF (human) (UniProt P55072); assay: cryo-EM structure; datasets 1 and 2: 12.5 uM ^LD655p97^D592AzF, 10 uM UN, 10 uM Faf1 FH-UBX, 20 uM Ub-^Cy3Ub-Ubn, GF buffer with 5 mM ATP, 0.06% CHAPS, 0.04% octyl-β-D-glucopyranoside, frozen at once after mixing; PI state, I state, Npl4 local map, IC1 and IC2
[2] = molecular target: LD655-labeled p97 D592AzF (human) (UniProt P55072); assay: FRET or BRET; stopped-flow mixing, 37°C, with ATP; 1 uM ^LD655p97/UN/Faf1 and 0.1 uM Ub-^Cy3Ub-Ubn chains; excitation 480 nm; apparent time constant
[3] = molecular target: T1, Ufd1 (human) (human)
T1 sequence (Q92890 1-307, looked up): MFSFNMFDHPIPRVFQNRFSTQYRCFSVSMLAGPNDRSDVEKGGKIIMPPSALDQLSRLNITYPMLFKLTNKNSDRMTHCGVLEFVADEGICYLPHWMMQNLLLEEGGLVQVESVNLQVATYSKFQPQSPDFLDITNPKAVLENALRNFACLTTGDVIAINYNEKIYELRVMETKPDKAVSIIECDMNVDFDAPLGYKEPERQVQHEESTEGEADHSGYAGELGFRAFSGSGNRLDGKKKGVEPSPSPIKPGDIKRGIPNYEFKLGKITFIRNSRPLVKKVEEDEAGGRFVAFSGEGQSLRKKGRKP

stoichiometry N (per p97 hexamer) [1]: 2
Molecule: Faf1 FH-UBX fragment (from UniProt Q9UNN5 481-650) (domain or fragment)

apparent time constant of ubiquitin insertion (τinitiation) [2]: 5.1 s
Molecule: unanchored poly-ubiquitin chains with Cy3 on the second ubiquitin (Ub-^Cy3Ub-Ubn) (from UniProt P0CG48 1-76; P0CG48 1-76; P0CG48 1-76)

Eos-unfolding activity of p97-UN [3]: 5 fold
B1: Faf2 Δ1-271 (domain or fragment)
chain: YLVSERLEREERNQTQVLRQQQDEAYLASLRADQEKERKKREERERKRRKEEEVQQQKLAEERRRQNLQEEKERKLECLPPEPSPDDPESVKIIFKLPNDSRVERRFHFSQSLTVIHDFLFSLKESPEKFQIEANFPRRVLPCIPSEEWPNPPTLQEAGLSHTEVLFVQDLTDE
